Where a chain is given by its changes, count along the chain named.
Tests used:
[1] = molecular target: T1, human FGFR3 IIIb recombinant protein (1264-FR-050, R&D) (human, UniProt P22607-2 23-377); experiment: SPR (Biacore), hFGFR3-iiib immobilised on the chip, antibody injected
T1 construct: Bought recombinant antigen; also called rhFGFR3-IIIb; FGFR3-IIIb (Human)
T1 sequence (looked up): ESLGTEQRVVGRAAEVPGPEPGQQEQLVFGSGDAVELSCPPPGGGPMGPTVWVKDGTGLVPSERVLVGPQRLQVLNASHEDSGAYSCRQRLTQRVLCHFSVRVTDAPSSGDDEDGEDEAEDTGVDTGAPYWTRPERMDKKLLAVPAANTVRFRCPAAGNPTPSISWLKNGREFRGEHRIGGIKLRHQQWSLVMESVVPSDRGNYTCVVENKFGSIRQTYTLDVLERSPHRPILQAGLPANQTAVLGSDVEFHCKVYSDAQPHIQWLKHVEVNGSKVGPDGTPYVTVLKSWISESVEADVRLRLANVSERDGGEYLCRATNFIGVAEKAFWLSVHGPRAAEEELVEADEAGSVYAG
Method: SPR analysis was performed to evaluate the binding ability of the produced antibody (IgG) to the FGFR3 subtype and subfamily. The measurement of SRP-based affinity of FGFR3 antibody candidates for the FGFR3 antigen was performed using a Biacore-T200 instrument. The same antigens as described with reference to ELISA binding capacity were directly immobilized on a CM5 biosensor chip by amine coupling to achieve approximately 300 RU. Two-fold serial dilutions were injected at a flow rate of […] at a concentration of approximately 20 nM for an association time of 180 seconds (25° C.) and then separated at the same flow rate for 180 seconds. The CM5 biosensor chip was regenerated by injecting 10 mM glycine-HCl as a buffer between each injection. Association and dissociation rates were calculated using a one-to-one Langmuir binding model. The equilibrium dissociation constant (KD) was calculated as a ratio Koff/Kon (FIG. 5, Table 6).

[2] = molecular target: T2, FGFR3 recombinant protein (isoform not given) (Homo sapiens (Human), UniProt P22607 23-375, limits assumed); experiment: competition ELISA (FGFR3 - FGF1 interaction), blocked ligand FGF1
T2 construct: also called FGFR3 antigen
T2 sequence: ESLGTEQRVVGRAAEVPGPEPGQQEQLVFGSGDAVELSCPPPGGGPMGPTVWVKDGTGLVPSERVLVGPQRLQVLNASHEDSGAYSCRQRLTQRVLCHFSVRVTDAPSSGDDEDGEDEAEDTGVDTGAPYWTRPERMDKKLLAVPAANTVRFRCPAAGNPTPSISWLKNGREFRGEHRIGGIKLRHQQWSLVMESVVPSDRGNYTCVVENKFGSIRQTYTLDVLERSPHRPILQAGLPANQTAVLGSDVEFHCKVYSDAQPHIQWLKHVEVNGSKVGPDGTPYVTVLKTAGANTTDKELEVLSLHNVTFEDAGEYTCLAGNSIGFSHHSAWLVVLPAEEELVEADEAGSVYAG

[3] = molecular target: T1, human FGFR3 IIIb recombinant protein …; experiment: direct-binding ELISA on rhFGFR3-IIIb, 1' screening (row head prints IC50)
[4] = molecular target: T1, human FGFR3 IIIb recombinant protein …; experiment: direct-binding ELISA on rhFGFR3-IIIb, 2' screening, plate 1 (row head prints IC50)
[5] = molecular target: T3, human FGFR3 IIIc recombinant protein (766-FR-050, R&D) (human, UniProt P22607 23-375); experiment: SPR, table under the sensorgrams, column KD, row FGFR3-IIIc Human; unit inferred
T3 construct: Bought recombinant antigen; also called FGFR3-IIIc (Human)
T3 sequence (looked up): T2 sequence

[6] = molecular target: T4, FGFR3 Ig domain II with Fc tag (UniProt P22607 151-244); experiment: FGFR3 Domain ELISA, AMB302#1, bar Domain#2
T4 construct: domain: FGFR3 Ig domain II; Recombinant domain made in mammalian cells; also called domain No. 2
T4 sequence: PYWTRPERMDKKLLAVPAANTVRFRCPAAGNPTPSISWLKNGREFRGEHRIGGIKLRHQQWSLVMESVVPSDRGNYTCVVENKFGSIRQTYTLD
Method: FGFR3 is composed of three domains, so each domain (FGFR3 Ig domain I, domain II, domain III) is attached with an Fc tag to analyze the FGFR3-binding domain of the discovered antibody, and produced and purified through a mammalian cell protein expression system (FIG. 9C). Analysis of the binding ability of the antibody to the purified domain was performed in the same manner as the ELISA described above. 1 μg/ml of an antigen was coated and treated with the antibody to induce a TMB color reaction. […] However, the epitope of the comparative antibody is included in domain No. 2, which was conducted according to the present invention. In addition, ligands of FGF1 and FGF9, and FGFR3 have been reported to bind to Ig domain II and domain III of FGFR3. Based on this, competition ELISA assay was conducted. […] This supports binding of F309 antibody to the aforementioned FGFR3 Ig domain I (FIG. 9A).
The epitope domain mapping performed above was also performed on the affinity matured antibody F309 #SSM236 (hereinafter referred to as AMB302 #1.2). […] The antibody was also found to have specific binding ability to human/cyno FGFR3 (FIG. 17).

[7] = molecular target: T5, monkey FGFR3 recombinant protein (90313-C02H, Sino Biological) (cynomolgus monkey, UniProt A0A2K5V1U5 23-376); experiment: SPR, table under the sensorgrams, column KD, row FGFR3 Monkey; unit inferred
T5 construct: Bought recombinant antigen; also called cynomolgus monkey FGFR3; cyno FGFR3
T5 sequence: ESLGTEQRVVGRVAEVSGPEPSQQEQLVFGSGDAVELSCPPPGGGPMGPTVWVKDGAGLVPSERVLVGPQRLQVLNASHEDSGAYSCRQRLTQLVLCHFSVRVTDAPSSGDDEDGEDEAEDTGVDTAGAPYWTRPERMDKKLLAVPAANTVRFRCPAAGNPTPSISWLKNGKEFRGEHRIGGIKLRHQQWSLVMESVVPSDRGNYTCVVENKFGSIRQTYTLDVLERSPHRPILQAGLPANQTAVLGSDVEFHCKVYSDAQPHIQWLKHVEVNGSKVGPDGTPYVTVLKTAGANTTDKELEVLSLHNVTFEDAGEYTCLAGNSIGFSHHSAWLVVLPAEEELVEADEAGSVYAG

Domain#3 = molecular target: T6, Domain#3 (human, UniProt P22607); experiment: ELISA on Fc-tagged FGFR3 constructs (FGFR3 domain mapping), bar Domain#3
T6 construct: single domain fused to human IgG1 Fc; also called FGFR3 Domain 3; FGFR3 Ig domain III with Fc tag
T6 sequence (Fc fusion chain): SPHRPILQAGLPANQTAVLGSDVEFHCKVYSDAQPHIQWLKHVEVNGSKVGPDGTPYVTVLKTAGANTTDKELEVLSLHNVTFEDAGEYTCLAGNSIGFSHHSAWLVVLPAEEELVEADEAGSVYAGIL
Method: (§1) Affinity ELISA was performed to determine the binding ability of the produced antibody (IgG) to the FGFR3 antigen. A 96-well plate (4° C., overnight) was coated with […] of FGFR3 antigen and blocked with 3% skim milk (PBS) (room temperature, 1 hour). Then, the plate was treated with previously serially diluted antibody samples in duplicate and triplicate, and reacted at room temperature for 1 hour. Then, the result was washed with PBST 2 to 3 times, treated with the HRP-conjugated anti-human Fab antibody diluted in skim milk (room temperature, 1 hour), and washed again with PBST, and a color reaction (TMB substrate) was performed. Then, O.D. was measured at 450 nm.
(§2) FGFR3 is composed of three domains, so each domain (FGFR3 Ig domain I, domain II, domain III) is attached with an Fc tag to analyze the FGFR3-binding domain of the discovered antibody, and produced and purified through a mammalian cell protein expression system (FIG. 9C). Analysis of the binding ability of the antibody to the purified domain was performed in the same manner as the ELISA described above. 1 μg/ml of an antigen was coated and treated with the antibody to induce a TMB color reaction. […] However, the epitope of the comparative antibody is included in domain No. 2, which was conducted according to the present invention. […]

[8] = molecular target: T1, human FGFR3 IIIb recombinant protein …; experiment: SPR, table under the sensorgrams, column KD, row FGFR3-IIIb Human; unit inferred
[9] = molecular target: T1, human FGFR3 IIIb recombinant protein …; experiment: direct-binding ELISA on rhFGFR3-IIIb, 2' screening, plate 2 (row head prints IC50); 2' screening, Plate2
[10] = molecular target: T1, human FGFR3 IIIb recombinant protein …; experiment: direct-binding ELISA on rhFGFR3-IIIb, 1' screening (row head prints IC50); 1' screening
[11] = molecular target: T4, FGFR3 Ig domain II with Fc tag; experiment: ELISA on Fc-tagged FGFR3 constructs (FGFR3 domain mapping), bar Domain#2
Method: as §1, §2

B1: FS313 (antibody, V domains shown)
VH: EVQLLESGGGLVQPGGSLRLSCAASGFTFSGYAMSWVRQAPGKGLEWVSGINWRGATTAYADSLKGRFTISRDNSKNTLYLQMNSLRAEDTAVYYCARSDYGLFDIWGQGTLVTVSS
VL: QSVLTQPPSASGAPGQRVTISCGGNNIGSKSVHWYQQLPGTAPKLLIYQDTKRPSGVPNRFSGSKSGTSASLAISGLRSEDEADYYCQSYDSRQLVFGGGTKLTVL
notes: also called FS313 IgG
B1: binds [1].

B2: B701 (Vofatamab, Rainier Therapeutics) (antibody, V domains shown)
VH: EVQLVESGGGLVQPGGSLRLSCAASGFTFTSTGISWVRQAPGKGLEWVGRIYPTSGSTNYADSVKGRFTISADTSKNTAYLQMNSLRAEDTAVYYCARTYGIYDLYVDYTEYVMDYWGQGTLVTVSS
VL: DIQMTQSPSSLSASVGDRVTITCRASQDVDTSLAWYKQKPGKAPKLLIYSASFLYSGVPSRFSGSGSGTDFTLTISSLQPEDFATYYCQQSTGHPQTFGQGTKVEIK
B2 was tested, and the “IC50 (read off the curve)” value [2] was about 3 nM and the EC50 [3] was 0.417 nM.

B3: F309 (antibody, V domains shown)
VH: EVQLLESGGGLVQPGGSLRLSCAASGFTFSSYDMSWVRQAPGKGLEWVSGIYSGDGSIYYADSVKGRFTISRDNSKNTLYLQMNSLRAEDTAVYYCAKDAPTNEMSRFDYWGQGTLVTVSS
VL: QSVLTQPPSASGTPGQRVTISCSGSSSNIGNNYVSWYQQLPGTAPKLLIYADSKRPSGVPDRFSGSKSGTSASLAISGLRSEDEADYYCASWDYSLSGYVFGGGTKLTVL
notes: also called F309 antibody; F309 clone
B3 was tested, and the EC50 [4] was 80.4 nM, the Kd [5] was 11.1 nM and the binding result [6] was “no binding”. The Kd [7] was 32.8 nM, the binding result (Domain#3) was “no binding” and the Kd [8] was 10.4 nM. It also gave an EC50 [3] of 0.67 nM and an EC50 [9] of 67 nM.

B4: F309#SSM001 (antibody, V domains shown)
VH: B3 VH with A100Y
VL: B3 VL
With B4 the EC50 [10] was 2190 nM.

B5: FS306 (antibody, V domains shown)
VH: EVQLLESGGGLVQPGGSLRLSCAASRFTFSDIAMHWVRQAPGKGLEWVSTIYSSDSTYYNPSLKGRFTISRDNSKNTLYLQMNSLRAEDTAVYYCAKGVGYTTSSRFDYWGQGTLVTVSS
VL: EIVLTQGPGTLSLSPGERATLSCRASQSISSYLNWYQQKPGQAPRLLVYDASNRAAGIPDRFSGSGSGTDFTLTISRLEPEDFAVYYCQQYSSFPLTFGQGTKVEIK
notes: also called FS306 antibody; FS306 clone
B5: no binding [11]; no binding (Domain#3).

From patent publication US20240101684A1 (AIMED BIO, published 2024)
